Source: patent US20080058263A1 (published 2008)

T1: VEGFR-3-Fc (UniProt P35916 25-328)
T1 construct: domain: first three Ig domains; conditioned supernatant of 293T cells; also called VEGFR-3-Fc fusion protein; not shown: Fc fragment of the pIg vector
T1 sequence (looked up): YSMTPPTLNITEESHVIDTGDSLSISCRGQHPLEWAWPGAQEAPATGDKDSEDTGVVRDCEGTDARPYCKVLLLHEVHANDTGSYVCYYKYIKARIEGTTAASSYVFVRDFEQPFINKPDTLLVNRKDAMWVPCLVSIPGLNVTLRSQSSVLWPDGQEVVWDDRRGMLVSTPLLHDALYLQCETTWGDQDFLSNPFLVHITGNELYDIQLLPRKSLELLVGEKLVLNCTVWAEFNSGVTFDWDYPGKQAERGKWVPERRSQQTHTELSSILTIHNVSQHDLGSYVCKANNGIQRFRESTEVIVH


Key:
Assay in all cases: receptor-Fc IP
VEGFR-1-Fc = target: T2, VEGFR-1-Fc (UniProt P17948 27-338)
T2 construct: domain: first three Ig domains; expressed in Drosophila S2 cells, purified on Protein A sepharose; also called VEGFR-1-Fc fusion protein; not shown: Fc fragment from the Signal-pIgPlus vector
T2 sequence (P17948 27-338): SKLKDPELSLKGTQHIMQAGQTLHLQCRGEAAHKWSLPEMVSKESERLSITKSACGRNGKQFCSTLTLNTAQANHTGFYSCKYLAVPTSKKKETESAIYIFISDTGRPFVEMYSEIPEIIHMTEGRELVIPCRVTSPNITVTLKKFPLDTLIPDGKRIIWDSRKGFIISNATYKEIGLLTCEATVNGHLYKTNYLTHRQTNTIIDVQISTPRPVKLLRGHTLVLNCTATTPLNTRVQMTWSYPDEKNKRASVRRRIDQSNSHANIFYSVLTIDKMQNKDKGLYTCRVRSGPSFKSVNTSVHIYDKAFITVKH
Protocol: (§1) The binding assay procedure was identical to the immunoprecipitation using pentahistidine antibody described in Example 2, apart from the composition of the immunoprecipitation (IP) mixes. The IP mixes used for the receptor binding analysis were as follows: For VEGFR-1 binding assays, the IP mix was phosphate buffered saline (PBS) containing 1.5% BSA, 0.06% Tween 20, 3 μg/ml heparin and 400 ng/ml VEGFR-1-Fc fusion protein (100 μl of this IP mix was added to 200 μl of sample supernatant); for VEGFR-2 binding assays, the IP mix was 82% conditioned cell supernatant from 293T cells transiently expressing VEGFR-2-Fc fusion protein in mixture with 18% of a PBS solution that contained 5% BSA, 0.2% Tween 20, and 10 μg/ml heparin (250 μl of IP mix was added to 200 μl of sample supernatant); and for VEGFR-3 binding assays, the IP mix was 82% conditioned cell supernatant from 293T cells transiently expressing VEGFR-3-Fc fusion protein, 18% of PBS containing 5% BSA, 0.2% Tween 20, and 10 μg/ml heparin (250 μl of IP mix was added to 200 μl of sample supernatant).

VEGFR-2-Fc = target: T3, VEGFR-2-Fc (UniProt P35968 20-322)
T3 construct: domain: first 3 Ig domains; conditioned supernatant of 293T cells; also called VEGFR-2-Fc fusion protein; not shown: Fc fragment of the pIg vector
T3 sequence (P35968 20-322): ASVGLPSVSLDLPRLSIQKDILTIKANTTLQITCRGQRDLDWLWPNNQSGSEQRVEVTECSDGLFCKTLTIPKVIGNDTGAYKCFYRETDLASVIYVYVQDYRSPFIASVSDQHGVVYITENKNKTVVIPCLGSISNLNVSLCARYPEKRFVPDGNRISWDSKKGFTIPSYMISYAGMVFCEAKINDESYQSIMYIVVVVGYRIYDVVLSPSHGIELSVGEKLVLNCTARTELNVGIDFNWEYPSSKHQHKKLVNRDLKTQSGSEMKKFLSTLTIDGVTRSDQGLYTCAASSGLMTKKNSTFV
Protocol: as §1

VEGFR-3-Fc = target: T1, VEGFR-3-Fc
Protocol: as §1

Binder	binding result (VEGFR-1-Fc)	binding result (VEGFR-2-Fc)	binding result (VEGFR-3-Fc)
22-2 (ligand) AHYNTEILKSIDNEWRKTQCMPREVCIDVGKEFGVATNTFFKPPCVSVYRCGGCCNDEGLECMNTSTSYLSKTLFEIKPHQGQHIGEMSFLQHNKCECRPKKD	no binding	binds	binds
22-14 (ligand) AHYNTEILKSIDNEWRKTQCMPREVCIDVGKEFGVATNTFFKPPCVSVYRCGGCCNDEGLECMNTSTSYLSKTLFEITVPLSQGPKPVTISFANHTSCRCMSKLD	no binding	binds	binds
21-14 (ligand) AHYNTEILKSIDNEWRKTQCMPREVCIDVGKEYPDEIEYIFKPSCVPLMRCGGCCNDEGLECMNTSTSYLSKTLFEITVPLSQGPKPVTISFANHTSCRCMSKLD	no binding	no binding	no binding
22-10 (ligand) AHYNTEILKSIDNEWRKTQCMPREVCIDVGKEFGVATNTFFKPPCVSVYRCGGCCNDEGLECMNTSTSYLSKTLFEITVPLSQGPKPVTISFLQHNKCECRPKKD	no binding	binds	binds
22-12 (ligand) AHYNTEILKSIDNEWRKTQCMPREVCIDVGKEFGVATNTFFKPPCVSVYRCGGCCNSEGLQCMNTSTSYLSKTLFEITVPLSQGPKPVTISFLQHNKCECRPKKD	no binding	binds	binds
23-16 (ligand) AHYNTEILKSIDNEWRKTQCMPREVCIDVGKEYPDEIEYIFKPPCVSVYRCGGCCNSEGLQCMNTSTSYLSKTLFEITVPLSQGPKPVTISFANHTSCRCMSKLD	no binding	no binding	no binding
24-10 (ligand) AHYNTEILKSIDNEWRKTQCMPREVCIDVGKEFGVATNTFFKPSCVPLMRCGGCCNDEGLECMNTSTSYLSKTLFEITVPLSQGPKPVTISFLQHNKCECRPKKD	no binding	no binding	no binding
24-14 (ligand) AHYNTEILKSIDNEWRKTQCMPREVCIDVGKEFGVATNTFFKPSCVPLMRCGGCCNDEGLECMNTSTSYLSKTLFEITVPLSQGPKPVTISFANHTSCRCMSKLD	no binding	no binding	no binding
24-16 (ligand) AHYNTEILKSIDNEWRKTQCMPREVCIDVGKEFGVATNTFFKPSCVPLMRCGGCCNSEGLQCMNTSTSYLSKTLFEITVPLSQGPKPVTISFANHTSCRCMSKLD	no binding	no binding	no binding
52-14 (ligand) AHYNTEILKSIDNEWRKTQCMPIETLVDIFQEFGVATNTFFKPPCVSVYRCGGCCNDEGLECMNTSTSYLSKTLFEITVPLSQGPKPVTISFANHTSCRCMSKLD	no binding	no binding	binds
52-16 (ligand) AHYNTEILKSIDNEWRKTQCMPIETLVDIFQEFGVATNTFFKPPCVSVYRCGGCCNSEGLQCMNTSTSYLSKTLFEITVPLSQGPKPVTISFANHTSCRCMSKLD	no binding	binds	binds
72-14 (ligand) GQNHHEVVKSIDNEWRKTQCMPREVCIDVGKEFGVATNTFFKPPCVSVYRCGGCCNDEGLECMNTSTSYLSKTLFEITVPLSQGPKPVTISFANHTSCRCMSKLD	no binding	binds	binds
72-16 (ligand) GQNHHEVVKSIDNEWRKTQCMPREVCIDVGKEFGVATNTFFKPPCVSVYRCGGCCNSEGLQCMNTSTSYLSKTLFEITVPLSQGPKPVTISFANHTSCRCMSKLD	no binding	binds	binds
74-14 (ligand) GQNHHEVVKSIDNEWRKTQCMPREVCIDVGKEFGVATNTFFKPSCVPLMRCGGCCNDEGLECMNTSTSYLSKTLFEITVPLSQGPKPVTISFANHTSCRCMSKLD	no binding	no binding	no binding
23-14 (ligand) AHYNTEILKSIDNEWRKTQCMPREVCIDVGKEYPDEIEYIFKPPCVSVYRCGGCCNDEGLECMNTSTSYLSKTLFEITVPLSQGPKPVTISFANHTSCRCMSKLD	no binding	binds	no binding
21-10 (ligand) AHYNTEILKSIDNEWRKTQCMPREVCIDVGKEYPDEIEYIFKPSCVPLMRCGGCCNDEGLECMNTSTSYLSKTLFEITVPLSQGPKPVTISFLQHNKCECRPKKD	no binding	no binding	no binding
21-16 (ligand) AHYNTEILKSIDNEWRKTQCMPREVCIDVGKEYPDEIEYIFKPSCVPLMRCGGCCNSEGLQCMNTSTSYLSKTLFEITVPLSQGPKPVTISFANHTSCRCMSKLD	no binding	no binding	no binding
23-10 (ligand, clone entry) AHYNTEILKSIDNEWRKTQCMPREVCIDVGKEYPDEIEYIFKPPCVSVYRCGGCCNDEGLECMNTSTSYLSKTLFEITVPLSQGPKPVTISFLQHNKCECRPKKD	no binding	binds	no binding
23-12 (ligand) AHYNTEILKSIDNEWRKTQCMPREVCIDVGKEYPDEIEYIFKPPCVSVYRCGGCCNSEGLQCMNTSTSYLSKTLFEITVPLSQGPKPVTISFLQHNKCECRPKKD	no binding	binds	no binding
51-14 (ligand) AHYNTEILKSIDNEWRKTQCMPIETLVDIFQEYPDEIEYIFKPSCVPLMRCGGCCNDEGLECMNTSTSYLSKTLFEITVPLSQGPKPVTISFANHTSCRCMSKLD	no binding	no binding	no binding
53-14 (ligand) AHYNTEILKSIDNEWRKTQCMPIETLVDIFQEYPDEIEYIFKPPCVSVYRCGGCCNDEGLECMNTSTSYLSKTLFEITVPLSQGPKPVTISFANHTSCRCMSKLD	no binding	no binding	no binding
53-16 (ligand) AHYNTEILKSIDNEWRKTQCMPIETLVDIFQEYPDEIEYIFKPPCVSVYRCGGCCNSEGLQCMNTSTSYLSKTLFEITVPLSQGPKPVTISFANHTSCRCMSKLD	no binding	no binding	no binding
71-14 (ligand) GQNHHEVVKSIDNEWRKTQCMPREVCIDVGKEYPDEIEYIFKPSCVPLMRCGGCCNDEGLECMNTSTSYLSKTLFEITVPLSQGPKPVTISFANHTSCRCMSKLD	no binding	no binding	no binding
73-14 (ligand) GQNHHEVVKSIDNEWRKTQCMPREVCIDVGKEYPDEIEYIFKPPCVSVYRCGGCCNDEGLECMNTSTSYLSKTLFEITVPLSQGPKPVTISFANHTSCRCMSKLD	no binding	no binding	no binding
